Test results published in the supplement of paper PMC9112550, “Optimization of the antimicrobial peptide Bac7 by deep mutational scanning” (BMC Biology, 2022).

tested on: Escherichia coli TOP10; assay: shrunken log2 fold change of peptide-encoding DNA abundance (4.5 h post-induction vs induction); higher = less antimicrobial activity (less host growth inhibition); conditions: time post-induction: 4.5 h; library: site-saturation at positions 5, 18, 19, 20
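Further: peptides expressed intracellularly from a pBAD plasmid library in pooled LB shake-flask culture, induced with 0.3% L-arabinose, DNA abundance read by NGS, three biological replicates, DESeq2 with apeglm shrinkage.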

| Sequence | shrunken log2 fold change |
| --- | --- |
| RRIRKRPPRLPRPRPRPQYEPRP | 0.0265 |
| RRIRIRPPRLPRPRPRPWEMPRP | 0.177 |
| RRIRPRPPRLPRPRPRPTKDPRP | -0.166 |
| RRIRPRPPRLPRPRPRPWSEPRP | -0.0275 |
| RRIRDRPPRLPRPRPRPYSLPRP | -0.017 |
| RRIRFRPPRLPRPRPRPQCFPRP | -0.0591 |
| RRIRIRPPRLPRPRPRPDFNPRP | -0.701 |
| RRIRLRPPRLPRPRPRPKPQPRP | 0.212 |
| RRIRWRPPRLPRPRPRPWIRPRP | -0.124 |
| RRIRNRPPRLPRPRPRPDRGPRP | -0.0223 |
| RRIRNRPPRLPRPRPRPWIDPRP | -0.0152 |
| RRIRGRPPRLPRPRPRPGDMPRP | 0.511 |
| RRIRGRPPRLPRPRPRPGNVPRP | 0.22 |
| RRIRRRPPRLPRPRPRPPYDPRP | 0.213 |
| RRIRWRPPRLPRPRPRPLKDPRP | -0.178 |
| RRIRPRPPRLPRPRPRPMVHPRP | 0.137 |
| RRIRPRPPRLPRPRPRPGHQPRP | 0.153 |
| RRIRYRPPRLPRPRPRPFGYPRP | -1.39 |
| RRIRHRPPRLPRPRPRPMYIPRP | -0.0294 |
| RRIRSRPPRLPRPRPRPNKFPRP | -0.36 |
| RRIRHRPPRLPRPRPRPVEQPRP | 0.0184 |
| RRIRCRPPRLPRPRPRPRSKPRP | 0.0908 |
| RRIRPRPPRLPRPRPRPFDVPRP | 0.0778 |
| RRIRARPPRLPRPRPRPFTVPRP | -0.253 |
| RRIRQRPPRLPRPRPRPLMYPRP | -0.608 |

| Sequence | shrunken log2 fold change |
| --- | --- |
| RRIRHRPPRLPRPRPRPWFRPRP | -0.00674 |
| RRIRMRPPRLPRPRPRPKDEPRP | 1.75 |
| RRIRCRPPRLPRPRPRPVEMPRP | 0.0203 |
| RRIRSRPPRLPRPRPRPTIRPRP | 0.0218 |
| RRIRFRPPRLPRPRPRPSLHPRP | -0.558 |
| RRIRRRPPRLPRPRPRPSYVPRP | -0.0434 |
| RRIRARPPRLPRPRPRPYFQPRP | -0.383 |
| RRIRQRPPRLPRPRPRPKHRPRP | -0.0509 |
| RRIRPRPPRLPRPRPRPTDCPRP | 0.165 |
| RRIRIRPPRLPRPRPRPSVKPRP | -0.037 |
| RRIRHRPPRLPRPRPRPGDVPRP | -0.16 |
| RRIRFRPPRLPRPRPRPPNTPRP | -0.0857 |
| RRIRCRPPRLPRPRPRPCWLPRP | -0.0409 |
| RRIRDRPPRLPRPRPRPKSIPRP | 0.114 |
| RRIRCRPPRLPRPRPRPQIPPRP | -0.126 |
| RRIRYRPPRLPRPRPRPVAEPRP | -0.0801 |
| RRIRERPPRLPRPRPRPLTIPRP | -0.101 |
| RRIRLRPPRLPRPRPRPWTQPRP | 0.13 |
| RRIRKRPPRLPRPRPRPSFYPRP | -0.391 |
| RRIRRRPPRLPRPRPRPRHVPRP | 0.158 |
| RRIRKRPPRLPRPRPRPYANPRP | -0.091 |
| RRIRSRPPRLPRPRPRPKKGPRP | 0.0379 |
| RRIRQRPPRLPRPRPRPVGLPRP | 0.35 |
| RRIRERPPRLPRPRPRPMCVPRP | -0.461 |
| RRIRKRPPRLPRPRPRPVVTPRP | 0.417 |

| Sequence | shrunken log2 fold change |
| --- | --- |
| RRIRERPPRLPRPRPRPASVPRP | -0.0789 |
| RRIRMRPPRLPRPRPRPHGAPRP | 0.0098 |
| RRIRMRPPRLPRPRPRPFSYPRP | -0.029 |
| RRIRQRPPRLPRPRPRPMAWPRP | -0.128 |
| RRIRRRPPRLPRPRPRPILTPRP | 0.447 |
| RRIRHRPPRLPRPRPRPAQSPRP | -0.0382 |
| RRIRYRPPRLPRPRPRPRGQPRP | 0.0255 |
| RRIRYRPPRLPRPRPRPLPAPRP | -0.165 |
| RRIRDRPPRLPRPRPRPRPPPRP | 0.935 |
| RRIRARPPRLPRPRPRPSLSPRP | -0.224 |
| RRIRVRPPRLPRPRPRPQHNPRP | -0.604 |
| RRIRARPPRLPRPRPRPQTRPRP | 0.874 |
| RRIRRRPPRLPRPRPRPQIWPRP | 0.279 |
| RRIRVRPPRLPRPRPRPECNPRP | -0.195 |
| RRIRGRPPRLPRPRPRPGHPPRP | 0.444 |
| RRIRIRPPRLPRPRPRPEFHPRP | 0.0992 |
| RRIRGRPPRLPRPRPRPDVGPRP | 0.434 |
| RRIRWRPPRLPRPRPRPRGWPRP | 1.13 |
| RRIRWRPPRLPRPRPRPNPRPRP | 0.452 |
| RRIRSRPPRLPRPRPRPHNSPRP | -0.357 |
| RRIRFRPPRLPRPRPRPRERPRP | 1.02 |
| RRIRSRPPRLPRPRPRPEMSPRP | 0.259 |
| RRIRMRPPRLPRPRPRPNGMPRP | 0.185 |
| RRIRRRPPRLPRPRPRPVRQPRP | 0.874 |
| RRIRTRPPRLPRPRPRPLKQPRP | 0.0283 |

| Sequence | shrunken log2 fold change |
| --- | --- |
| RRIRLRPPRLPRPRPRPMTYPRP | -0.0978 |
| RRIRWRPPRLPRPRPRPDKKPRP | -0.0507 |
| RRIRMRPPRLPRPRPRPCMTPRP | 1.65 |
| RRIRLRPPRLPRPRPRPAEAPRP | 0.0653 |
| RRIRERPPRLPRPRPRPWFFPRP | -0.358 |
| RRIRMRPPRLPRPRPRPDLKPRP | 0.751 |
| RRIRNRPPRLPRPRPRPVYSPRP | -0.252 |
| RRIRRRPPRLPRPRPRPMLVPRP | 0.196 |
| RRIRWRPPRLPRPRPRPYKIPRP | -0.286 |
| RRIRERPPRLPRPRPRPAIKPRP | -0.656 |
| RRIRWRPPRLPRPRPRPFYYPRP | -0.138 |
| RRIRPRPPRLPRPRPRPESAPRP | 0.396 |
| RRIRTRPPRLPRPRPRPLNSPRP | -0.347 |
| RRIRARPPRLPRPRPRPFSPPRP | -0.342 |
| RRIRWRPPRLPRPRPRPEHFPRP | 0.00426 |
| RRIRQRPPRLPRPRPRPPWCPRP | 0.0207 |
| RRIRGRPPRLPRPRPRPYPIPRP | 3.7 |
| RRIRSRPPRLPRPRPRPAPIPRP | 0.133 |
| RRIRRRPPRLPRPRPRPTFKPRP | 0.214 |
| RRIRSRPPRLPRPRPRPLQFPRP | 0.0849 |
| RRIRYRPPRLPRPRPRPTMIPRP | -0.455 |
| RRIRHRPPRLPRPRPRPESGPRP | -0.0115 |
| RRIRGRPPRLPRPRPRPQMAPRP | 0.923 |
| RRIRKRPPRLPRPRPRPLQAPRP | 1.34 |
| RRIRKRPPRLPRPRPRPTTWPRP | 0.414 |

| Sequence | shrunken log2 fold change |
| --- | --- |
| RRIRDRPPRLPRPRPRPVCSPRP | 0.222 |
| RRIRGRPPRLPRPRPRPRMTPRP | 1.26 |
| RRIRTRPPRLPRPRPRPRLYPRP | 0.0155 |
| RRIRTRPPRLPRPRPRPCKNPRP | -0.33 |
| RRIRSRPPRLPRPRPRPIKVPRP | -0.181 |
| RRIRFRPPRLPRPRPRPSANPRP | -0.395 |
| RRIRCRPPRLPRPRPRPADQPRP | -0.0916 |
| RRIRPRPPRLPRPRPRPVMHPRP | 0.15 |
| RRIRTRPPRLPRPRPRPDCMPRP | -0.137 |
| RRIRQRPPRLPRPRPRPFTWPRP | -0.398 |
| RRIRMRPPRLPRPRPRPRYCPRP | -0.164 |
| RRIRARPPRLPRPRPRPHDTPRP | 0.111 |
| RRIRCRPPRLPRPRPRPMWYPRP | -0.414 |
| RRIRNRPPRLPRPRPRPTAAPRP | 0.543 |
| RRIRARPPRLPRPRPRPYFMPRP | -0.62 |
| RRIRDRPPRLPRPRPRPLRWPRP | 0.274 |
| RRIRARPPRLPRPRPRPTLPPRP | 0.263 |
| RRIRFRPPRLPRPRPRPVMEPRP | 0.352 |
| RRIRQRPPRLPRPRPRPQNIPRP | -0.882 |
| RRIRRRPPRLPRPRPRPYYFPRP | -0.139 |
| RRIRNRPPRLPRPRPRPYVMPRP | -1.01 |
| RRIRMRPPRLPRPRPRPQYTPRP | -0.0579 |
| RRIRIRPPRLPRPRPRPIQKPRP | 0.00853 |
| RRIRIRPPRLPRPRPRPHADPRP | -0.178 |
| RRIRMRPPRLPRPRPRPMYAPRP | 0.0486 |

| Sequence | shrunken log2 fold change |
| --- | --- |
| RRIRHRPPRLPRPRPRPIEHPRP | -0.394 |
| RRIRFRPPRLPRPRPRPTKTPRP | -0.0652 |
| RRIRRRPPRLPRPRPRPMGNPRP | 0.0273 |
| RRIRRRPPRLPRPRPRPENDPRP | 0.785 |
| RRIRGRPPRLPRPRPRPMPMPRP | 0.352 |
| RRIRERPPRLPRPRPRPLQPPRP | 0.468 |
| RRIRYRPPRLPRPRPRPCTCPRP | 0.0744 |
| RRIRCRPPRLPRPRPRPYPSPRP | -0.0149 |
| RRIRDRPPRLPRPRPRPYWEPRP | -0.0419 |
| RRIRPRPPRLPRPRPRPEEAPRP | 0.0763 |
| RRIRKRPPRLPRPRPRPDSFPRP | -0.115 |
| RRIRCRPPRLPRPRPRPEMHPRP | 0.304 |
| RRIRTRPPRLPRPRPRPLWLPRP | 0.165 |
| RRIRARPPRLPRPRPRPHFHPRP | -0.197 |
| RRIRSRPPRLPRPRPRPEHAPRP | -0.0123 |
| RRIRQRPPRLPRPRPRPTDMPRP | -0.0372 |
| RRIRYRPPRLPRPRPRPFCIPRP | -1.5 |
| RRIRKRPPRLPRPRPRPSYKPRP | -0.692 |
| RRIRTRPPRLPRPRPRPEHPPRP | 0.716 |
| RRIRNRPPRLPRPRPRPCGFPRP | -0.0155 |
| RRIRNRPPRLPRPRPRPVYHPRP | -0.0311 |
| RRIRDRPPRLPRPRPRPYADPRP | -0.155 |
| RRIRTRPPRLPRPRPRPYTIPRP | -1.21 |
| RRIRARPPRLPRPRPRPKRPPRP | 1.03 |
| RRIRRRPPRLPRPRPRPNWGPRP | 0.412 |
